Measurements as given in paper PMC6712834, “SUMOylation regulates USP5-Cav3.2 calcium channel interactions” (Molecular Brain, 2019).

Target: T1, Cav3.2-GFP tagged calcium channel (human, UniProt O95180 1-2353)
T1 construct: also called Cav3.2 T-type calcium channel; source: tsA-201 cells, transfected (lipofectamine 2000), in lysate; not shown: GFP, C-terminal, kept
Test: co-IP; tsA-201 cells co-expressing Cav3.2-GFP and mCherry-USP5 (WT or K113R); lysed in modified RIPA buffer (50 mM Tris, 100 mM NaCl, 0.2% Triton X-100, 0.2% NP-40, 10 mM EDTA, pH 7.5); Cav3.2-GFP precipitated with anti-GFP antibody and Protein G/A beads overnight at 4 °C; blot probed with mCherry antibody; densitometry
Details: partners not purified

T1 sequence (O95180 whole entry): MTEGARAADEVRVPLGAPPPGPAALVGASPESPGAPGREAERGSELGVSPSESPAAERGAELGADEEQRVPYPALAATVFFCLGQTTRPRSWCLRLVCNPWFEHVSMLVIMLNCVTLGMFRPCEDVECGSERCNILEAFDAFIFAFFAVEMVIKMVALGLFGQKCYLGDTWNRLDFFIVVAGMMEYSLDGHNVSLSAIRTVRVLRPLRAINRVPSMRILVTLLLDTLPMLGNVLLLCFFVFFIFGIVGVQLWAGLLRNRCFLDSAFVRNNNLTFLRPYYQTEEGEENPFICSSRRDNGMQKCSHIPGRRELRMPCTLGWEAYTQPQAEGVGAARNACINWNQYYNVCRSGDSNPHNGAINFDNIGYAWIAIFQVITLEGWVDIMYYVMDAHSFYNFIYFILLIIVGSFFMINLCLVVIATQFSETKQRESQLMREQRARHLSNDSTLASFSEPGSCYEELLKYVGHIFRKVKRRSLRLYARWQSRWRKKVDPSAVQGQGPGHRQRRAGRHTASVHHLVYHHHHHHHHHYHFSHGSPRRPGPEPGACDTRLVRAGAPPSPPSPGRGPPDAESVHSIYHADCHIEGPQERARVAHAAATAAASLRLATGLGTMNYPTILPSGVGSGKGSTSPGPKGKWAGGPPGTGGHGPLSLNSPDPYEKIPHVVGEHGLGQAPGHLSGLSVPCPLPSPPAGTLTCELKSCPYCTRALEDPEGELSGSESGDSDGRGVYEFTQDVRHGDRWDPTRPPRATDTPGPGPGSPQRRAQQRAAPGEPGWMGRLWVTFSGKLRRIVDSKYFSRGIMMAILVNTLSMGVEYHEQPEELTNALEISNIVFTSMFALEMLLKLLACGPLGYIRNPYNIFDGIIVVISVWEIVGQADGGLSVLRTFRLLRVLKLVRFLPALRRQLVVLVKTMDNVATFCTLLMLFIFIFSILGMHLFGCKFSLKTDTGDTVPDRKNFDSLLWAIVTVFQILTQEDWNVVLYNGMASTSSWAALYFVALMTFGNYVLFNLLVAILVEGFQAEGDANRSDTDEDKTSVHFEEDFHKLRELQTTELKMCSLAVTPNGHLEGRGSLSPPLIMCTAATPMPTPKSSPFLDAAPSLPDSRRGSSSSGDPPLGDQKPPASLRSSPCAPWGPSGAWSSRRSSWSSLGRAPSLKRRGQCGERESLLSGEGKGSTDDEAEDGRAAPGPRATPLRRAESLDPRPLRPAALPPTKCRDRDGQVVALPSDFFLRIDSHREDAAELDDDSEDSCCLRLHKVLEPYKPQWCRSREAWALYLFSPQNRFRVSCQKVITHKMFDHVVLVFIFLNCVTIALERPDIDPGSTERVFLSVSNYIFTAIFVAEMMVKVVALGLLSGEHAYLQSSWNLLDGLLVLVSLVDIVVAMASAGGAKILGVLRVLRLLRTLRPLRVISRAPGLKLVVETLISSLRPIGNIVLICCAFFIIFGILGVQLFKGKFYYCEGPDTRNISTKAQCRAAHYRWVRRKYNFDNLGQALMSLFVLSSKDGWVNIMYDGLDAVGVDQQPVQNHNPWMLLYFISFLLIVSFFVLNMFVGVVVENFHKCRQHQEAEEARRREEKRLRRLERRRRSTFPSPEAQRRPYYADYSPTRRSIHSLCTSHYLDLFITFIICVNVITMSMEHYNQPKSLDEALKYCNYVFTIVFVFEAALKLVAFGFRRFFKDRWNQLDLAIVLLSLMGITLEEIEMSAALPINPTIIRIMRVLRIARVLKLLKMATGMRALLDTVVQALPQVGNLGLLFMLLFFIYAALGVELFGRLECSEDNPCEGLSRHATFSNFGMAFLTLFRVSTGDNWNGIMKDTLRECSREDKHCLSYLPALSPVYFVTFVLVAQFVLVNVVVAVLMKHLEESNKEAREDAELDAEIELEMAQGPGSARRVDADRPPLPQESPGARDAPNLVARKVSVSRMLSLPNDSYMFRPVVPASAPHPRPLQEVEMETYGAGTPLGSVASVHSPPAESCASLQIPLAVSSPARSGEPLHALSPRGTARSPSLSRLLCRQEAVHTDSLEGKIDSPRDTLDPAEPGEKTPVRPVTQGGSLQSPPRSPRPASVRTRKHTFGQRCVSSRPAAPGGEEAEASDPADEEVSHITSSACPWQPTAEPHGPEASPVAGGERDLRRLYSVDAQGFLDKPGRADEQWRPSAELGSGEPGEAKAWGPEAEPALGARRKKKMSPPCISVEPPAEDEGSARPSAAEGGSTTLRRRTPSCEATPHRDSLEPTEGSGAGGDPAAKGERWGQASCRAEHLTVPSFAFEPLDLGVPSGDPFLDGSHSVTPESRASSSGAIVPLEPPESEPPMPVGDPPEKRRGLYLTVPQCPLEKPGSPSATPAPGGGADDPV

fold change of co-precipitated amount against USP5-WT: ~2.2 fold
B1: mCherry tagged USP5-K113R mutant (enzyme, human, UniProt P45974-1 1-858, looked up)
chain: MAELSEEALLSVLPTIRVPKAGDRVHKDECAFSFDTPESEGGLYICMNTFLGFGKQYVERHFNKTGQRVYLHLRRTRRPKEEDPATGTGDPPRKKPTRLAIGVEGGFDLSEERFELDEDVKIVILPDYLEIARDGLGGLPDIVRDRVTSAVEALLSADSASRKQEVQAWDGEVRQVSKHAFSLKQLDNPARIPPCGWKCSKCDMRENLWLNLTDGSILCGRRYFDGSGGNNHAVEHYRETGYPLAVKLGTITPDGADVYSYDEDDMVLDPSLAEHLSHFGIDMLKMQKTDKTMTELEIDMNQRIGEWELIQESGVPLKPLFGPGYTGIRNLGNSCYLNSVVQVLFSIPDFQRKYVDKLEKIFQNAPTDPTQDFSTQVAKLGHGLLSGEYSKPVPESGDGERVPEQKEVQDGIAPRMFKALIGKGHPEFSTNRQQDAQEFFLHLINMVERNCRSSENPNEVFRFLVEEKIKCLATEKVKYTQRVDYIMQLPVPMDAALNKEELLEYEEKKRQAEEEKMALPELVRAQVPFSSCLEAYGAPEQVDDFWSTALQAKSVAVKTTRFASFPDYLVIQIKKFTFGLDWVPKKLDVSIEMPEELDISQLRGTGLQPGEEELPDIAPPLVTPDEPKGSLGFYGNEDEDSFCSPHFSSPTSPMLDESVIIQLVEMGFPMDACRKAVYYTGNSGAEAAMNWVMSHMDDPDFANPLILPGSSGPGSTSAAADPPPEDCVTTIVSMGFSRDQALKALRATNNSLERAVDWIFSHIDDLDAEAAMDISEGRSAADSISESVPVGPKVRDGPGKYQLFAFISHMGTSTMCGHYVCHIKKEGRWVIYNDQKVCASEKPPKDLGYIYFYQRVAS
notes: Homo sapiens ubiquitin specific peptidase 5 (USP5), open reading frame of GenBank NM_001098536 in pcDNA3.1, point mutant made by PCR; also called SUMO-resistant USP5-K113R; SUMO2/3 resistant USP5-K113R mutant; source: tsA-201 cells, transfected (lipofectamine 2000), in lysate; not shown: mCherry, N-terminal, kept
